Experiment [1] addresses human ENaC αβγTh (thrombin consensus sequence LVPRG at γ186-190) (human) (UniProt P37088).
Experiment [2] deals with wild-type human epithelial Na+ channel (α, β, γ ENaC) (human) (UniProt P37088).
Experiment [3] deals with human ENaC αβγ_(V182G;V193G) (human) (UniProt P37088).
Experiment [4] concerns the target wild-type human epithelial Na+ channel (α, β, γ ENaC) (human) (UniProt P37088). The source holds these as a separate data set.
For experiment [5], the target named is human ENaC αβγ_(V182G;V193G) (human) (UniProt P37088). The source holds these as a separate data set.
The target of experiment [6] is wild-type human epithelial Na+ channel (α, β, γ ENaC) (human) (UniProt P37088). This is another data set of the same source.
Experiment [7] deals with human ENaC αβγ_(V182G;V193G) (human) (UniProt P37088). This is another data set of the same source.
The target of experiment [8] is wild-type human epithelial Na+ channel (α, β, γ ENaC) (human) (UniProt P37088). The source holds these as a separate data set.
The target of experiment [9] is human ENaC αβγ_(V182G;V193G) (human) (UniProt P37088). The source holds these as a separate data set.
The target of experiment [10] is wild-type human epithelial Na+ channel (α, β, γ ENaC) (human) (UniProt P37088). This is another data set of the same source.
Experiment [11] has as its target human ENaC αβγ_(A190G) (human) (UniProt P37088).
Experiment [12] addresses human ENaC αβγ_(V182G;V193G) (human) (UniProt P37088). The source holds these as a separate data set.
For experiment [13], the target named is wild-type human epithelial Na+ channel (α, β, γ ENaC) (human) (UniProt P37088). This is another data set of the same source.
In experiment [14] the target is human ENaC αβγ_(A190G) (human) (UniProt P37088). This is another data set of the same source.

The record followed here is PMC2151661.

With human α thrombin (enzyme), in [1], the K1/2 (TH concentration at half maximal stimulation of ΔIPR^Norm) was 14.8 nM and the apparent KM from kobs of INa activation against TH concentration (Eq. 8) was found to be 0.34 µM. The substance also displayed a ΔIPR^Norm, 300 nM TH, aprotinin-treated FRT cells in experiment [2] of 0.1.
Turning to “human neutrophil elastase (from UniProt P08246 30-267) (enzyme)”, the K1/2 (NE concentration at half maximal stimulation of ΔIPR^Norm) in experiment [3] was found to be 510 nM; in experiment [4], 100 nM. Also, the apparent KM from kobs (1/τ) of INa activation against NE concentration (Eq. 8) in experiment [4] turned out to be 0.57 µM. This substance had a ΔIPR^Norm, 300 nM NE, aprotinin-treated FRT cells (comparison with αβγTh) in experiment [2] of 0.6. Further, the results for the ΔIPR^Norm against NE concentration, 30 to 1,000 nM, aprotinin-treated FRT cells in [5] and in experiment [6] were 0.52 and 0.75, respectively.
Take “porcine pancreatic elastase (from UniProt P00772 27-266) (enzyme)”: the time constant τ of INa activation by 300 nM PE, aprotinin-treated FRT cells in [7] stood at 3.6 min; in experiment [8] it was 2 min. Further, the ΔIPR^Norm, 300 nM PE, aprotinin-treated FRT cells (comparison with αβγTh) in [2] stood at 0.7. Besides, the K1/2 (PE concentration at half maximal stimulation of ΔIPR^Norm) in experiment [9] was 35 nM; in experiment [10] it was 77 nM; in experiment [14], 1140 nM. The apparent KM from kobs of INa activation against PE concentration (Eq. 8) in [9] came to 0.29 µM; in [10], 0.204 µM. For the same substance, the ΔIPR^Norm, 1,000 nM PE, aprotinin-treated FRT cells in experiment [11] came to 0.26; in [12] it was 0.89; in [13], 0.7. The time constant τ of INa activation by 1,000 nM PE, aprotinin-treated FRT cells in experiment [12] amounted to 2.17 min; in experiment [13], 1.94 min.
